This note sets out measurements from US20220064329A1.

The target in this experiment is recombinant human activated Factor VII (FVIIa) (human) (UniProt P08709). In words: cell-based or functional assay.
Sequence of recombinant human activated Factor VII (FVIIa) (human) (P08709 61-212, chain 1 of 2): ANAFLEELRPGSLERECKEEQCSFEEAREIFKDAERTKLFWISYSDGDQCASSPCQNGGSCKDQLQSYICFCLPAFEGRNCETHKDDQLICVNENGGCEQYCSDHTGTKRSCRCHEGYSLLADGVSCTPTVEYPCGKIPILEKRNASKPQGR
Sequence of recombinant human activated Factor VII (FVIIa) (human) (P08709 213-466, chain 2 of 2): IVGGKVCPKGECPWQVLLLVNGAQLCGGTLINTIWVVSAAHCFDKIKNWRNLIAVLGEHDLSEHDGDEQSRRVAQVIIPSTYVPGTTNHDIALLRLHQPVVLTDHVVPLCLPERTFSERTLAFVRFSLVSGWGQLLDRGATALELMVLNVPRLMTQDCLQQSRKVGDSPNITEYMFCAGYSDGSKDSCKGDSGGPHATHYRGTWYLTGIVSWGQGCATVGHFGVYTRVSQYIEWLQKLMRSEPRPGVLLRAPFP

Consider “human plasma-derived alpha-2-macroglobulin (from UniProt P01023 24-1474)”, for which the apparent second order rate constant of inhibition of FVIIa by alpha-2-macroglobulin, no antibody was 475 M⁻¹ s⁻¹.

Take “human plasma-derived antithrombin (AT) (from UniProt P01008 33-464)”: the apparent second order rate constant (kinh) of inhibition of free FVIIa by antithrombin was found to be 124 M⁻¹ s⁻¹.
